Measurements as given in the supplement of paper PMC10567573.

B1: MCOLN1 (parent)
chain: EEEDLRRRLKYFFMSPCDKFRAKG
B2: VAMP4 (parent)
chain: FLRGPSGPRFGPRNDKIKHVQNQV

Variants of: B1
Assay: protein stability index of a GFP-peptide fusion (GPS, HEK-293T) (PSI 1-6); higher = more stable
Conditions: c terminus: a fixed tail appended
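Note: lentivirally expressed fusions sorted by FACS into six bins by GFP to DsRed ratio, PSI derived from sequencing read proportions per bin multiplied by bin number.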

Protein stability index of substitutions, site by site:
Y11: W 1.42
F12: A 3.53; C 3.27; D 3.61; E 3.9; G 3.43; H 2.5; I 2.93; K 2.98; L 3.73; M 2.91; N 4.11; P 3.56; Q 3.53; R 2.91; S 3.58; T 3.62; V 2.65; W 2.39; Y 2.69
F13: A 3.88; C 3.8; D 3.22; E 3.74; G 3.78; H 3.75; I 3.15; K 3.23; L 3.2; M 2.67; N 3.77; P 3.97; Q 3.65; R 3.54; S 3.37; T 3.61; V 3.45; W 3; Y 3.81
M14: A 3.27; C 2.24; D 3.23; E 2.65; F 2.83; G 3.56; H 2.59; I 2.87; K 3.14; L 2.14; N 3.3; P 3.16; Q 3.04; R 2.73; S 2.96; T 2.79; V 2.66; W 3.05; Y 2.23
S15: A 2.42; C 1.66; D 3.4; E 3.26; F 2.26; G 2.77; H 2.79; I 1.82; K 2.63; L 2.05; M 1.94; N 2.62; P 1.65; Q 2.84; R 2.91; T 3.1; V 2; W 2.49; Y 2.62
P16: A 2.12; C 1.84; D 3.12; E 1.87; F 2.2; G 1.92; H 2.09; I 1.95; K 2.61; L 1.7; M 1.78; N 2.11; Q 1.84; R 2.26; S 2.81; T 2.68; V 2.12; W 2.19; Y 2.39
C17: A 2.21; D 3.08; E 3.23; F 2.1; G 2.69; H 2.61; I 2.59; K 2.1; L 2.19; M 1.97; N 2.89; P 2.9; Q 3.58; R 1.58; S 2.54; T 2.19; V 2.53; W 2.13
D18: A 1.91; C 1.83; E 1.94; G 2.06; H 2.05; I 2.49; K 1.94; L 2.32; M 2.35; N 1.77; P 1.73; Q 2.2; R 1.93; S 2.18; T 1.53; V 2.44; W 2.25; Y 2.67
K19: A 2.21; C 2.33; D 2.45; E 2.94; F 2.21; G 2.37; H 2.65; I 1.74; L 2.14; M 2.27; N 2.48; P 2.66; Q 2.73; R 1.55; S 2.4; T 3.01; V 2.51; W 1.69; Y 2.75
F20: A 3.82; C 2.9; D 3.79; G 3.04; H 2.61; I 2.14; K 3.58; L 3.33; M 2.77; N 3.62; P 3.59; Q 3.23; R 3.04; S 3.58; T 3.45; V 3.06; W 2.21; Y 2.28
R21: A 2.52; C 2.65; D 3.15; E 3.45; F 2.4; G 3.01; H 3.28; I 2.51; K 2.93; L 2.19; M 2.72; N 3.01; P 3.09; Q 3.04; S 3.1; T 3.05; V 2.56; W 1.81; Y 2.54
A22: C 1.97; D 2.64; E 2.18; F 2.29; G 2.67; H 2.52; I 1.91; K 2.5; L 1.85; M 2.13; N 2.21; Q 2.13; R 1.95; S 2.27; T 2.19; W 1.36; Y 1.88
K23: A 2.78; C 2.43; D 3.56; E 2.47; F 1.64; G 1.84; H 1.84; I 2.01; L 1.86; M 1.33; N 2.56; P 2.5; Q 2.59; R 2.65; S 2.26; T 2.31; W 1.2; Y 1.53
G24: A 2.43; C 1.82; D 2.4; E 3.07; F 1.8; H 2.07; I 2.37; K 3.11; L 2.55; M 2.29; N 2.35; P 2.4; Q 4.48; R 1.73; S 2.57; T 2.52; V 2.29; W 1.33; Y 1.78

Variants of: B2
Assay: as above
Conditions: c terminus: a fixed tail appended

Protein stability index, by site and new letter:
F1: A 3.87; C 2.85; D 3.75; E 3.6; G 3.65; H 3.22; I 3.38; K 3.35; L 3.26; M 3.27; N 3.44; P 4.07; Q 3.68; R 3.35; S 3.71; T 3.79; V 3.43; W 2.61; Y 2.52
L2: A 2.48; C 2.11; D 3.08; E 3.71; F 3; G 2.87; H 1.95; I 1.97; K 3.21; M 2.99; N 2.69; P 3.18; Q 2.73; R 3.43; S 3.37; T 2.99; V 1.48; W 2.9; Y 2.61
R3: A 2.54; C 2.77; D 3.29; E 3.56; F 1.96; G 2.74; H 3.17; I 2.24; K 3.04; L 2.42; M 2.04; N 2.93; P 2.58; Q 2.6; S 3.3; T 3.25; V 2.08; W 2.02; Y 1.99
G4: A 3.07; C 2.24; D 2.99; E 3.17; F 2.47; H 2.85; I 2.05; K 2.82; L 2.59; M 2.57; N 3.08; P 3.12; Q 3.2; R 3.22; S 3.06; T 3.17; V 2.6; W 1.96; Y 2.24
P5: A 2.79; C 2.48; D 3.36; E 3.15; F 2.29; G 2.43; H 3.3; I 2.17; K 2.95; L 2.59; M 2.37; N 2.94; Q 2.98; R 2.72; S 2.96; T 2.86
